assay: yeast display, Sf9 membrane polyspecificity reagent, FACS + sequencing; frameworks hold sequencing errors
In short: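 Genes from sorted yeast were amplified by colony PCR, read by MiSeq 2 × 250 sequencing and filtered on CDR length. These cells carried a synthetic nanobody library in Saccharomyces cerevisiae BJ5465 and were sorted by FACS into low and high (top ~1%) gates on anti-HA and streptavidin fluorescence. Polyreactivity is labelled according to the gate of origin.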

Row | Sequence | polyreactivity (PSR sort gate)
1 | QVQLVESGGGLVQAGGSLRLSCAPSGRSFASYAMGWYRQAPGKERELVAAISKSGGRTYYADSVKGRFTISRDNAKNTVYLQMNSLKPEDTAVYYCAAYFWTRSGTPNYDYWGQGTQVTVSS | high polyreactivity
2 | QVQLVESGGGLVQAGGSLRLSCAPSGRTFLAYAMGWYRQAPGKEREVVAAISSSGSTTYYADSVKGRFTISRDNAKNTVYLQMNSLKPEDTAVYYCAASNGYRSSYYRYDYWGQGTQVTVSS | low polyreactivity
3 | QVQLVESGGGLVQAGGSLRLSCAPSGRTFQQYAMGCYRQAPGKDREFVAAITFSGGTTYFADSVKGRFTISRDNAKNTVYFQMNSLKPEDTAVYYCAADIYYWSFYYSRYDYWGQGTQVTVSS | high polyreactivity
4 | QVQLVESGGGLVQAGGSLRLSCAPSGRTFSVNDMGWYRQAPGKERELVAAISFSGGSTYYADSVKGRFTISRDNAKNTVYLQMNSLKPEDTAVYYCAAEAYPSWFYVITGFGIYDYWGQGTQVTVSS | high polyreactivity
5 | QVQLVESGGGLVQAGGSLRLSCAPSGRTFWTNAMGWYRQAPGKERELVAAIRNSGGRTYYADSVKGRFTISRDNAKNTVFLQMNSLKPEDSAVYYCNARSSIRPRQGGYEHWGQGTQVTVSS | low polyreactivity
6 | QVQLVESGGGLVQAGGSLRLSCAPSGRTLFHYAMGWYRQAPGKERELVAAISSGGRTNYADSVKGRFTISRDNAKNTVYLQMNSLKPEDTAVYYCAARRFYLQHGFEYWGQGTQVTVSS | high polyreactivity
7 | QVQLVESGGGLVQAGGSLRLSCAPSGRTVRYNAMGWYRQAPGKERELVARITWSGGRTYYADSVKGRFTISRDNAKNTVYLQMNSLKPEDTAVNYGNAPSIAGYAEYNSHDYWGQGTQVTVSS | high polyreactivity
8 | QVQLVESGGGLVQAGGSLRLSCAPSGSIFDYYVRGWSRQAPGKERELVAAISWSGASTYYADSVKGRFTISRDNAKNTVYLQITSLKPEDTAVYYCAADYGVNTLIDYDYWGQGTQVTVSS | low polyreactivity
9 | QVQLVESGGGLVQAGGSLRLSCAPSGSIFERYAMGWYRHAPGKERELVAAISWRGGSTYYADSVKGRFTISRDNAKNTVYLQMNSLIQEDTAVYYCAADSRTCYYYWGQGTQVTVST | high polyreactivity
10 | QVQLVESGGGLVQAGGSLRLSCAPSGSIFGGYAMGWYRQAPGKERELVAAITWGGGSTYYADSVKGRFTISRDNAKNTVYLQMISLKPEATAVYYCAADRSWYDWEDDYWGQGTQVTVSS | low polyreactivity
11 | QVQLVESGGGLVQAGGSLRLSCAPSGSIFNRNVMGWYRQAPGKERELVAAITRGGRTSYADSVKGRFTISRDNAKNTVYLQMNSLKPEDTAVYYCAARRGYWVVYWGQGTQVTVSS | high polyreactivity
12 | QVQLVESGGGLVQAGGSLRLSCAPSGSIFPSYAMGWYRQAPGKERELVAAISRSAGSTYYADSVKGRFTISRDNAKNTVYLQMNSLKPEDTAVYYCAADGYSSRYGYDYWGQGTQVTVSS | low polyreactivity
13 | QVQLVESGGGLVQAGGSLRLSCAPSGSIFRGYTMGWYRQAPVKERELVAAISWSGGSTYYADSVKGRFTISRDNAKNTVYLQMNSLKPEDTAVYYCAAGDYYHRIFLWYDFWGQGTQVNVSS | low polyreactivity
14 | QVQLVESGGGLVQAGGSLRLSCAPSGSIFSYYDMGGYRQAPGKERELVAGISRGGSTNYADSVKGRFTISRDNAKNTVYLQMNSLKPEDTAVYYCNADQSSRTFPFRLSRRSWLYGYWGQGSQVTVSS | low polyreactivity
15 | QVQLVESGGGLVQAGGSLRLSCAPSGSIFYINAMAWYRQAPGKERELVAAITSDGSTYYADSVKGRFTISRDNAKNTVYLQMNSLKPVDTAVYYFAADMTSDQYLYYWYWFYSWGQGTQVTVSS | low polyreactivity
16 | QVQLVESGGGLVQAGGSLRLSCAPSGSIFYVYARGWYRQAPGKERQLVATIPRVGRTYYADSVKGRFTISRDNAKNTVYLQRNSLKPEDTAVYYCATRYGGRSYKYDYWGQGTQVTVSS | high polyreactivity
17 | QVQLVESGGGLVQAGGSLRLSCAPSGSIVRGYAMAWYRQAPGKERELVAAINSSGTRTYYADSVKGRFTISRDNAKNTVYFQLYSLKPEDSAVYYCAARAVSEYFVVPFYYWGQGTQVTVSS | high polyreactivity
18 | QVQLVESGGGLVQAGGSLRLSCAPSGSTFEHYTMGWYRQAPGKERELVAAISRRGGRTYYADSVKGRFTISRDNAKNTVYLQMNSLKPEDTAVYYCNAPVYTRKSIDYDYCGQGTQVTVSS | high polyreactivity
19 | QVQLVESGGGLVQAGGSLRLSCAPSGSTFFWYSMGWYRQAPGKERELVARISRRSGSTYYADSVKGRFTISRDNAKNTVYLQMNSLIPEDTAVYYCNARAVGAPGSVRYDYWGQGTQVTVSS | low polyreactivity
20 | QVQLVESGGGLVQAGGSLRLSCAPSGSTFLSYVMGWYRQAPGKERELVAAITGTGGRTYYADSVKGRFTISRDNAKNTVYLQMNCLKTEDTAVYYCTAYRNHGYDYWGQGTQVTVSS | high polyreactivity
21 | QVQLVESGGGLVQAGGSLRLSCAPSGSTFRTYTMGWYIQAPGKERELVAAITGRGGSTYYADSVKGRFTISRDTAKNTVYFQMNSLKREDTAVYYCAALYGGQTKHDFWGQGTQVTVSS | low polyreactivity
22 | QVQLVESGGGLVQAGGSLRLSCAPSGSTFYSYVMGWYRQATGKERELVAVISNDGSTNYADSVKGRFTISRDNAKNTVYLQMNSLKPEDTAVYYCAALKFVRAYRYYYWGQGTQVTVSS | low polyreactivity

Row | Sequence | polyreactivity (PSR sort gate)
23 | QVQLVESGGGLVQAGGSLRLSCAPSGSTINQYAMGWYRQAPGKESELVAAITRRGGSTYYADSVKGRFTISRDNAKNTVYLQMNSLKPEDTAVYYCAAAYPYTTVSYDYWGQGTQVTVSS | high polyreactivity
24 | QVQLVESGGGLVQAGGSLRLSCAPSGSTIVRYAMGWYRQAPGKERELVAAISGSGGTTYYADSVKGRFTISRDNAKNTVYLQMNSLKPEDTAVYYCATRISAMDYWGQGTQVTVSS | high polyreactivity
25 | QVQLVESGGGLVQAGGSLRLSCAPSGSTLYRNAMGWYRQAPGQDRELVAAINYRGTRTYDADSVKGRFTISRDTAKNTVYLQMNSLQPEDTAVYFCAKDYSQFVTYPYDYWGQGTQVTVSS | low polyreactivity
26 | QVQLVESGGGLVQAGGSLRLSCASSGFIFSSYAMGWYRQAPGKERELVAAISLRSTTTYYADSVKGRFTISRDNAKNSVYLQMNSLKPEDTAVDYCAKGGSRDRYGYWGQGTQVTVSS | high polyreactivity
27 | QVQLVESGGGLVQAGGSLRLSCASSGFIFWYYAMGWYRQAPGKERELVAAISSGDSKNYADSVKGRFTISRDNAKNTVYLQMNCLKPEDTAVYYCAARQPRTQAVYEGYYWGHGTQVTVSS | high polyreactivity
28 | QVQLVESGGGLVQAGGSLRLSCASSGFIIYSYAMGWYRQAPGKERELVAVISSRGGTTYYADSVKGRFTISRDNAKNTVYLQMNSLKPEDTAVYYCAADVWGPYDYWGQGTQVTVSS | low polyreactivity
29 | QVQLVESGGGLVQAGGSLRLSCASSGFTFGYYTKGWYRQAPGKERELVAAITSGGGTYYADSVKGRFTISRDNAKNTVYLQMKSLKPEDTAVYYCATTPGLYKVSSRYGYWGQGTQVTVSS | high polyreactivity
30 | QVQLVESGGGLVQAGGSLRLSCASSGFTFTANDMGWYRKAPGKERELVAAISWSGDSTYYADSVKGRFTISRDNAKNTVYLQMNRLIPEDTAVYYCNVVFEFLSDGYYSYDYWVQGTQVTVSS | low polyreactivity
31 | QVQLVESGGGLVQAGGSLRLSCASSGFTFYKYAMGWYRQAPGKERELVAAITRGDSTYYADSVKGRFTISRDNAKNTVYLQMNSLKPEDTAVYYCNAVFSYRLFNYWGQGTQVTVSS | high polyreactivity
32 | QVQLVESGGGLVQAGGSLRLSCASSGFTFYSYAMGWYRQAPGKERELVAAISKRGGSTYYADSVKGRFTISRDNAKNTVYLQMNSLQPEDTAVYYCNADYPYYYGYDYWGQGTQVTVSS | high polyreactivity
33 | QVQLVESGGGLVQAGGSLRLSCASSGFTLYANAMGGYRQAPGKERELVADISESGSSTSYADSVKGRFTISRDNAKNTVYLQMKSLKPEDTAVYYCYDYWVQGTQVTVSS | low polyreactivity
34 | QVQLVESGGGLVQAGGSLRLSCASSGFTSWDNDMGWYRQAPGKERELVAAISRGGSTNYADSVKGRFTISRDNAKDTVYLQMNSLKPVDTAVYYCNADFAPWDKQDYPYDYDYWGQGTQVTVSS | low polyreactivity
35 | QVQLVESGGGLVQAGGSLRLSCASSGFTYGTNAMVWYRQAPGKERELVAAISSRGGSTYYADSVKGRFTISRDNAKNTVYLLMNSLKPEDTAVYYCARRVARRQHEYGYWGQGTQVTVSS | high polyreactivity
36 | QVQLVESGGGLVQAGGSLRLSCASSGGIFASNVMGWYRQAPGKERELVAAISSITGSTYYADSVKGRFTISRDNAKNTVYLQMNSLKPEDTAVYYCAAYVQFAKIRFDYWGQGTQVTVSS | high polyreactivity
37 | QVQLVESGGGLVQAGGSLRLSCASSGGTLFQNAMGWYRQAPGKESELVATIRVSGGITYYADSVKGRFTISRDNAKNTVYFQMNSLNPEDTAVYYCAKDSADSRAVGDVMTFDYWGQGTQVTVSS | low polyreactivity
38 | QVQLVESGGGLVQAGGSLRLSCASSGITFAKNAMGRYRQAPGKERELVAVITNTNYADSVKGRFTISRDNAKNTVYLQMNSLKPEDTAVYYCAVDGYGWYFARSWLRYYYWGQGTQVTVSS | low polyreactivity
39 | QVQLVESGGGLVQAGGSLRLSCASSGITFRRYTMVWYRQAPGKERELVAAISRIGGSTYYADSVKGRFTISRDNAKNTVYLQMNSLKPEDTAVYYCATYYGGSGYDYWGQGTEVTVSS | high polyreactivity
40 | QVQLVESGGGLVQAGGSLRLSCASSGITLRYYAMGWYRQAPGKERELVAAISSGGRTKYADSVKGRFTISRDNAKNTVYLQMNSLKPENTAVSYCGARKPYVTHTIDVLQAHDYWGQGTQVTVSS | high polyreactivity
41 | QVQLVESGGGLVQAGGSLRLSCASSGLIFKKYTIGWYRQGPGKERELVASISKSGGSTYYADSVKGRFTISRDNAKNTVYLQMNSLNPEDTAVYYCNSVNHYIGFDYWGQGTQVTVSS | low polyreactivity
42 | QVQLVESGGGLVQAGGSLRLSCASSGLIFRVYNMGWYRQAPGKERELVAAITGRGGRTYYADSVKGRFTISRDNAKNTVYLQMNSLKPEDTSVYYCATGGRFQQAAYTGFNYWGQGTQVTVSS | high polyreactivity
43 | QVQLVESGGGLVQAGGSLRLSCASSGLIFWKYAMVWYRQAPGKERELVAAIRKSVGSTYYADSVKGRFTISRDNAKNTVFLQMNSLKPEDTAVYFCAAVYAGVGSQVKPDYCGQGTQVTVSS | high polyreactivity
